The target of assay [1] is T1, anti-mFc IgG antibody (plate-bound).
T1 construct: also called anti-Fc antibody
Nature of the assay: Fc ELISA: coat Anti-mFc (Jax), detect Anti-mFc-HRP (Jax). An excerpt:
A mouse whole IgG was used to generate a standard curve.

The target in assay [2] is T2, HLA class I histocompatibility antigen, alpha chain E (HLA-E), plate-bound recombinant protein (human, UniProt P13747 22-305, limits assumed).
T2 construct: no tag named there; also called recombinant HLA-E protein
T2 sequence (P13747 22-305 limits assumed): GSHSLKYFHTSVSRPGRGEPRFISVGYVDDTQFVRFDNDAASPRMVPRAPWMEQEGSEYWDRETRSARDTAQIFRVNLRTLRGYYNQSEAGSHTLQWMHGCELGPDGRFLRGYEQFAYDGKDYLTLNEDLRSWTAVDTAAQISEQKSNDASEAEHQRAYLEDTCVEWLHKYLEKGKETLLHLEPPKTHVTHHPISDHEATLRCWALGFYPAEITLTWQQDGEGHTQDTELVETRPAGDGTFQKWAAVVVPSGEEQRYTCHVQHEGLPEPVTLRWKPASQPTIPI
Nature of the assay: Dual binding ELISA: coat mHLA-E (Novus) as printed, detect Anti-mCD48 (R&D), HRP Anti-Goat HRP.

Assay [3] concerns the target T3, recombinant mCD47 (mCD47-His) protein (mouse, UniProt Q61735 19-140, limits assumed).
T3 construct: not shown: His tag
T3 sequence (looked up): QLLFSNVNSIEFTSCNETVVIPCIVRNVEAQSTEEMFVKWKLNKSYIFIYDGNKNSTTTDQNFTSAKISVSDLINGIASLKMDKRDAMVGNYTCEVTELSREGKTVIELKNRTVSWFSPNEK
Description: sandwich ELISA, anti-NKG2a antibody coated, mCD47-His detection (FIG. 38). As for the experimental part: Increasing amounts of the mSIRPα-Fc-NKG2A chimeric protein was added and detected using mCD47-His. The CD86-Fc-NKG2A chimeric protein was used as a negative control.
To understand whether the mSIRPα-Fc-NKG2A chimeric protein can binds simultaneously to both anti-NKG2a and CD47, the following ELISA experiment was carried out. Briefly, and anti-NKG2a antibody was coated on plates. Increasing amounts of the mSIRPα-Fc-NKG2A and mCD48-Fc-NKG2A chimeric proteins were added to the plates for capture by the anti-NKG2a antibody. Further, recombinant mCD47 (mCD47-His) protein was added to the plate for capture by mSIRPα-Fc-NKG2A chimeric protein. The binding of the mCD47-His protein was detected using an anti-His HRP antibody.

For assay [4], the target named is T4, recombinant human CD28-His (rhCD28-His) (human, UniProt P10747 19-152).
T4 construct: also called Human CD28-His protein; recombinant CD28 protein; not shown: His tag
T4 sequence (P10747 19-152 limits assumed): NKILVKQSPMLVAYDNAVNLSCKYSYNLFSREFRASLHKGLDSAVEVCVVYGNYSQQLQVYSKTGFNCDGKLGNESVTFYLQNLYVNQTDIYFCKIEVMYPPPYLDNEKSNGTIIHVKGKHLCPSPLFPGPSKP
Nature of the assay: ELISA: coat rhCD28-His (Acro), detection printed as Anti-hFc-HRP. The method, then:
To understand whether the CD80 and CD86 parts of the hCD80-Fc-NKG2A and hCD86-Fc-NKG2A chimeric protein can bind CD28, ELISA-based assays were performed. Briefly, recombinant CD28 protein was coated on plates and increasing amounts of the hCD80-Fc-NKG2A, hCD86-Fc-NKG2A, and mCD48-Fc-NKG2A chimeric proteins, and recombinant human CD86-Fc (rhCD86-Fc) protein was added to the plates for capture by the plate-bound recombinant CD28 protein. The mCD48-Fc-NKG2A chimeric protein, and recombinant human CDrhCD86-Fc protein was used as negative and positive controls, respectively. The chimeric proteins bound to the recombinant CD28 protein was detected using an anti-human Fc HRP.

Where “and” joins values, the source holds several entries; their conditions need not be identical. Equal entries are not always repeated.

B1: mouse CD48-Fc-NKG2A chimeric protein (Fc fusion)
chain: FQGHSIPDINATTGSNVTLKIHKDPLGPYKRITWLHTKNQKILEYNYNSTKTIFESEFKGRVYLEENNGALHISNVRKEDKGTYYMRVLRETENELKITLEVFDPVPKPSIEINKTEASTDSCHLRLSCEVKDQHVDYTWYESSGPFPKKSPGYVLDLIVTPQNKSTFYTCQVSNPVSSKNDTVYFTLPCDLARSVPRDCGCKPCICTVPEVSSVFIFPPKPKDVLTITLTPKVTCVVVDISKDDPEVQFSWFVDDVEVHTAQTQPREEQFNSTFRSVSELPIMHQDWLNGKEFKCRVNSAAFPAPIEKTISKTKGRPKAPQVYTIPPPKEQMAKDKVSLTCMITDFFPEDITVEWQWNGQPAENYKNTQPIMDTDGSYFVYSKLNVQKSNWEAGNTFTCSVLHEGLHNHHTEKSLSHSPGIIEGRMDTPYTEAKAQINSSMTRTHRDINYTLSSAQPCPHCPKEWISYSHNCYFIGMERKSWNDSLVSCISKNCSLLYIDSEEEQDFLQSLSLISWTGILRKGRGQPWVWKEDSIFKPKIAEILHDECNCAMMSASGLTADNCTTLHPYLCKCKFPI
notes: also called mCD48-Fc-NKG2A
With B1, the EC50 in assay [1] is 0.938 nM and 0.436 nM; in assay [2] it was 537 nM and 381 nM. Besides, the binding result in assay [3] was “no binding”; in assay [4], “no binding (tested: log[Agonist] about 2.7, ug/ml)”.

For the origin of these results see patent publication US20200399344A1 (SHATTUCK LABS, published 2020).
